Data taken from article PMC10218236, “Structural Optimization and Interaction Study of a DNA Aptamer to L1 Cell Adhesion Molecule”.

Molecular target: L1CAM protein (Sino Biological) (UniProt P32004 20-1120)
Assay: DMS footprinting; 100 nM DNA, 300 nM L1CAM; PBS, 4.5 g/L glucose, 5 mM MgCl2, 1 mg/mL BSA, 0.1 mg/mL herring sperm DNA; 30 min at 4 °C (or 25/37 °C); pH not stated
Settings: protein: commercial; label: FAM (3' FAM in DMS footprinting); hairpin, two stems, two loops, T bulge in stem I

Sequence of L1CAM protein (Sino Biological) (P32004 20-1120): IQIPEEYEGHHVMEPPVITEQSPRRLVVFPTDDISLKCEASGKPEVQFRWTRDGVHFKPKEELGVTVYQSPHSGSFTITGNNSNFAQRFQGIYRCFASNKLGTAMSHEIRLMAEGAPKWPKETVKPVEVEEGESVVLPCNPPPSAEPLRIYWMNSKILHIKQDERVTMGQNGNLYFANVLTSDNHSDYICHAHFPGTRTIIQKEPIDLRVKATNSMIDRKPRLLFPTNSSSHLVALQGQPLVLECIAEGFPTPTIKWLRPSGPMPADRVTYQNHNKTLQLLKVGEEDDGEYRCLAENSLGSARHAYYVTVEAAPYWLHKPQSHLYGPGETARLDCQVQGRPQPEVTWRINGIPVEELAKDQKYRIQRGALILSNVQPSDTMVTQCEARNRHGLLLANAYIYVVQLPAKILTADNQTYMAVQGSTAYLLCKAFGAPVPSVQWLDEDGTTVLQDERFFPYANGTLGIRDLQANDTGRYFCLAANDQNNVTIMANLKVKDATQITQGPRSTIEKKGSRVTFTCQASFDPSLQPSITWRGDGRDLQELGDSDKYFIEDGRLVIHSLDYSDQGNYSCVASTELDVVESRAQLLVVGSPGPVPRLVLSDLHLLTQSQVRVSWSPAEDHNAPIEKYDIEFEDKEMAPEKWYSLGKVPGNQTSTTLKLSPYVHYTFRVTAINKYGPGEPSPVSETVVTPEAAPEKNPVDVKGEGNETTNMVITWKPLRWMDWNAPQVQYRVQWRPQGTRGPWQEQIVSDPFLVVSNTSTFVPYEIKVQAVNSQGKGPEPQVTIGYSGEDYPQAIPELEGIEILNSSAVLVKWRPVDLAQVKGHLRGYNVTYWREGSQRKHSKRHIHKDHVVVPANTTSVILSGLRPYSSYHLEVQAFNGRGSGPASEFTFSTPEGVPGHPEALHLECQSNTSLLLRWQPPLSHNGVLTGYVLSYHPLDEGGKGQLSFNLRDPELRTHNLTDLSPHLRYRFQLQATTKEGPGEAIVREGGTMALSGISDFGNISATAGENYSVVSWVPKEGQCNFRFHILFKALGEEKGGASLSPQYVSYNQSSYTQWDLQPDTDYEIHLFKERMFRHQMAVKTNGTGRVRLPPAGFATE

B1: yly20 (ssDNA)
DNA: CAGATAGGGGGTAGCTCGGTCGTGTTTTTGGGTTGTTTGGTGGGTCTTCTG
B1: binds.
